Consider two molecules from patent US5763571A, “Inhibiting protein interactions” (The General Hospital Corporation, priority 1995, dated 1998).

The target in this assay is T1, Raf(1-257) (Homo sapiens, UniProt P04049).
T1 construct: expressed in transfected cells; host or cells: yeast strain GGY1::171, plasmid pMA424
The assay is described as follows: Yeast two-hybrid GAL4/lacZ interaction with Raf(1-257). It counts as cell-based. The conditions noted are these: X-gal plates. The procedure: Detection of protein-protein interactions using the two-hybrid system in yeast was carried out as follows. The vector pMA424 (Chien C. T., Bartel P. L., Sternglanz, R., Fields, S., Proc. Natl. Acad. Sci. U.S.A. 88, 9578-9582 (1991)) containing either Raf(1-257) or Raf(1-257, C168 →S) DNA sequences fused in frame with the sequences encoding GAL4 (1-147), was cotransformed into yeast together with the pACTII vector containing no insert as a control, or DNA sequences encoding V12GrasH, V12GrasHΔCT, murine rap1b, or rap1bΔCT fused in frame with the GAL4 transactivation domain II. […]
The DNA sequences encoding Raf(1-257) and Raf(1-257, C168 →S) were prepared by the PCR using the plasmids RSV-C4 and RSV-PM17 (Bruder, J. T., Heidecker, G. & Rapp, U.R. Genes Dev. 6, 545-556 (1992)) respectively as templates. […] The reading frame and the C168 →S mutation were verified by DNA sequencing. […] Transformants were grown on SDHis-Leu-plates as in (Durfee, T. et al. Genes Develop. 7, 555-569 (1993); Chien C. T., Bartel P. L., Sternglanz, R., Fields, S., Proc. Natl. Acad. Sci. U.S.A. 88, 9578-9582 (1991)) for 3 days before replica plating to X-gal containing plates, which in turn were scored for blue colonies 72 hours later.
Ras effector domain mutants which impair the interaction between V12GrasHΔCT and Raf(1-257) were analyzed as follows. […]

B1: V12Grap-1bΔCT: V12Grap-1b lacking the carboxyterminal 4 amino acids (protein)
chain: ANFNQSGNIADSSLSFTFTNSSNGPNLITTQTNSQALSQPIASSNVHDNFMNNEITASKIDDGNNSKPLSPGWTDQTAYNAFGITTGMFNTTTMDDVYNYLFDDEDTPPNPKKEMREYKLVVLGSVGVGKSALTVQFVQGIFVEKYDPTIEDSYRKQVEVDAQQCMLEILDTAGTEQFTAMRDLYMKNGQGFALVYSITAQSTFNDLQDLREQILRVKDTDDVPMILVGNKCDLEDERVVGKEQGQNLARQWNNCAFLESSAKSKINVNEIFYDLVRQINRKTPVPGKARKKSS
Consider B1, for which the “lacZ expression on coexpression with wild-type Raf(1-257) (in words)” value is “interact strongly”.

B2: V12Grap-1b: Rap 1b low molecular weight GTP binding protein variant, GAL4 fusion (protein)
chain: ANFNQSGNIADSSLSFTFTNSSNGPNLITTQTNSQALSQPIASSNVHDNFMNNEITASKIDDGNNSKPLSPGWTDQTAYNAFGITTGMFNTTTMDDVYNYLFDDEDTPPNPKKEMREYKLVVLGSVGVGKSALTVQFVQGIFVEKYDPTIEDSYRKQVEVDAQQCMLEILDTAGTEQFTAMRDLYMKNGQGFALVYSITAQSTFNDLQDLREQILRVKDTDDVPMILVGNKCDLEDERVVGKEQGQNLARQWNNCAFLESSAKSKINVNEIFYDLVRQINRKTPVPGKARKKSSCQLL
For B2, the “lacZ expression on coexpression with wild-type Raf(1-257) (in words)” value is “interact strongly”.
